Results taken from PMC5642495, “Characterization of a novel androgen receptor (AR) coregulator RIPK1 and related chemicals that suppress AR-mediated prostate cancer growth via peptide and chemical screening” (Oncotarget, 2017).
Substitutions are numbered along the chain they refer to. Ends that are not written are not given here.

Experiments:
wt-AR = target: T1, wt-AR (Homo sapiens, UniProt P10275); test: mammalian two-hybrid (MM2H) assay, peptide interaction with wt-AR; assay type: cell-based; conditions: PC-3 cells, Gal-4 = 1; for wt-AR DHT, peptide-AR interaction in MM2H assay: DHT = 10 nM
T1 construct: expressed in transfected cells; host or cells: PC-3
T1 sequence (P10275 1-920): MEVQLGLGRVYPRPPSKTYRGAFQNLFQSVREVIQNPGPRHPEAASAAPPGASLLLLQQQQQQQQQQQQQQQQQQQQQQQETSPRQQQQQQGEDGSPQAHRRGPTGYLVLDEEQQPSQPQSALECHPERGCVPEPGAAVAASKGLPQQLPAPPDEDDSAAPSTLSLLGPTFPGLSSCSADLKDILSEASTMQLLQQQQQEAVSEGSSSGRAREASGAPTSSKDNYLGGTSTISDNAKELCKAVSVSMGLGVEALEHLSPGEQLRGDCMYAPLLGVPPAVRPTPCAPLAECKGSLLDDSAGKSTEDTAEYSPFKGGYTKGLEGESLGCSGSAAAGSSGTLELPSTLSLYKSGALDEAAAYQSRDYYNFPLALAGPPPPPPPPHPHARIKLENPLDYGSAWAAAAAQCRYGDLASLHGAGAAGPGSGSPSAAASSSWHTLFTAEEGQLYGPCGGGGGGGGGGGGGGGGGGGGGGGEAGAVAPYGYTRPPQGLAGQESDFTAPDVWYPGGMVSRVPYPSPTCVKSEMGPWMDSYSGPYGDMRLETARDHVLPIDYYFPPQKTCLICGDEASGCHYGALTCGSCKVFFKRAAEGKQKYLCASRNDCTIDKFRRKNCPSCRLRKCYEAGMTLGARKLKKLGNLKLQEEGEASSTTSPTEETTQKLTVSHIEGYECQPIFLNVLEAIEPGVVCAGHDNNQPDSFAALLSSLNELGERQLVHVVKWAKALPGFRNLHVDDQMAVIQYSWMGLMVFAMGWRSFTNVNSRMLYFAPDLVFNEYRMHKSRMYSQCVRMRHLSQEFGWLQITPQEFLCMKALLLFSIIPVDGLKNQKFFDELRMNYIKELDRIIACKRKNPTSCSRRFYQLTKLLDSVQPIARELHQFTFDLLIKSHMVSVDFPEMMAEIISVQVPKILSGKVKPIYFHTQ
Source text: (§1) Using the phage display technique, we observed enrichment of FxxFY motif-containing peptides in CDX-W741L AR LBD screening. Peptide-AR interactions were further validated with the mammalian two-hybrid assay. […] The majority of these peptides additionally interacted with W741L-AR in the presence of bicalutamide. Protein database searches led to the identification of receptor-interacting protein kinase-1 (RIPK1) as a FxxFY motif-containing protein (^285FRPFY^289). RIPK1 is a kinase that plays a crucial role in inflammation and cell death. We hypothesized that RIPK1 is an AR-interacting candidate protein and the FxxFY motif is involved in mediating interactions with AR. To examine this theory, we tested the short FxxFY-containing peptide in a mammalian two-hybrid assay. […] In interacting domain mapping, the FxxFY motif of RIPK1 influenced binding to AR in the GST pull-down assay, mediating AR interactions predominantly through DBD-LBD, as depicted in Figure 1B. […] RIPK1 contains an amino-terminal kinase domain, an intermediate domain and a carboxy-terminal death domain [17]. […] We further examined tissue expression of RIPK1 in the prostate gland via immunohistochemical staining. As shown in Figure 1E and 1F, RIPK1 was enriched in benign prostate hyperplasia and non-tumor areas, but not the tumor area. In view of the collective data, we propose that RIPK1 is a bona fide AR coregulator.
(§2) The assay procedures were performed as described previously. The PC-3 cell line was used for the mammalian two-hybrid and reporter gene assays.

W741L-AR = target: T2, W741L-AR (Homo sapiens, UniProt P10275, W742L); test: mammalian two-hybrid (MM2H) assay, peptide interaction with W741L-AR; assay type: cell-based; conditions: PC-3 cells, Gal-4 = 1; for W741L-AR CDX, peptide-AR interaction in MM2H assay: CDX = 10 µM
T2 construct: expressed in transfected cells; host or cells: PC-3
T2 sequence (P10275 1-920 W742L): T1 sequence (P10275 1-920) with W742L
Source text: as §1, §2

Substance	wt-AR DHT, peptide-AR interaction in MM2H assay (wt-AR)	wt-AR Ethanol, peptide-AR interaction in MM2H assay (wt-AR)	W741L-AR CDX, peptide-AR interaction in MM2H assay (W741L-AR)	W741L-AR Ethanol, peptide-AR interaction in MM2H assay (W741L-AR)
C411-FY: phage display screened peptide NDTPVK-FAHFY-H (NDTPVKFAHFYH; also: fused to Gal4 DNA-binding domain, end not given here)	3	7	3	2
C8-FY: phage display screened peptide GD-FKSFY-LATTW (GDFKSFYLATTW; also: fused to Gal4 DNA-binding domain, end not given here)	484	17	86	2
CA9-FY: phage display screened peptide SL-FTSFY-TGSGS (SLFTSFYTGSGS; also: fused to Gal4 DNA-binding domain, end not given here)	1,517	20	190	5
RIP-p: short peptide of novel AR coregulator candidate RIPK1, GIEEK-FRPFY-LSQLE (GIEEKFRPFYLSQLE; also: fused to Gal4 DNA-binding domain (not in chain))	159	2	554	12
C1-FY: phage display screened peptide SYT-FNQFY-YSTA (SYTFNQFYYSTA; also: fused to Gal4 DNA-binding domain, end not given here)	680	19	511	8
CON-1: negative control peptide MYKP-HNHHQ-TSS (MYKPHNHHQTSS; also: fused to Gal4 DNA-binding domain (not in chain)) [reference compound]	1	1	1	1
C412-FY: phage display screened peptide APSDTY-FQRFY-R (APSDTYFQRFYR; also: fused to Gal4 DNA-binding domain, end not given here)	6	12	2	1
CA-10-FY: phage display screened peptide EHSM-FHSFY-VQG (EHSMFHSFYVQG; also: fused to Gal4 DNA-binding domain, end not given here)	277	12	14	4
C414-FY: phage display screened peptide NPSSM-FEKFY-LR (NPSSMFEKFYLR; also: fused to Gal4 DNA-binding domain, end not given here)	2,653	10	532	2
C315-FY: phage display screened peptide APSLNR-FATFY-H (APSLNRFATFYH; also: fused to Gal4 DNA-binding domain, end not given here)	6	1	2	1
C4-FY: phage display screened peptide SPL-FSSFY-HART (SPLFSSFYHART; also: fused to Gal4 DNA-binding domain, end not given here)	340	4	114	1
#3-18: positive control peptide NTNA-FSRLF-YPS (NTNAFSRLFYPS; also: fused to Gal4 DNA-binding domain, end not given here) [reference compound]	590	10	128	9
